# Values quoted from earlier work as cited in PMC6824834.
# Target: Glu165 (UniProt position 165, VVVAYEPVWAI)
# Conditions: substrate-bound, closed (desolvated) active site
substance,measurement,value
Triosephosphate isomerase (TIM) (Not stated for the quoted values; residue numbering is that of Saccharomyces cerevisiae TIM (yTIM)),pKa,>6
